According to patent US20260070975A1:

Tests used:
[1] = biological target: c-Kit expressed on the cell surface of M-07e cells (human) (UniProt P10721)
[2] = biological target: c-Kit expressed on the cell surface of M-07e cells (human) (UniProt P10721); test: cell-based or functional assay

c-Kit expressed on the cell surface of M-07e cells (human), sequence (P10721 26-976): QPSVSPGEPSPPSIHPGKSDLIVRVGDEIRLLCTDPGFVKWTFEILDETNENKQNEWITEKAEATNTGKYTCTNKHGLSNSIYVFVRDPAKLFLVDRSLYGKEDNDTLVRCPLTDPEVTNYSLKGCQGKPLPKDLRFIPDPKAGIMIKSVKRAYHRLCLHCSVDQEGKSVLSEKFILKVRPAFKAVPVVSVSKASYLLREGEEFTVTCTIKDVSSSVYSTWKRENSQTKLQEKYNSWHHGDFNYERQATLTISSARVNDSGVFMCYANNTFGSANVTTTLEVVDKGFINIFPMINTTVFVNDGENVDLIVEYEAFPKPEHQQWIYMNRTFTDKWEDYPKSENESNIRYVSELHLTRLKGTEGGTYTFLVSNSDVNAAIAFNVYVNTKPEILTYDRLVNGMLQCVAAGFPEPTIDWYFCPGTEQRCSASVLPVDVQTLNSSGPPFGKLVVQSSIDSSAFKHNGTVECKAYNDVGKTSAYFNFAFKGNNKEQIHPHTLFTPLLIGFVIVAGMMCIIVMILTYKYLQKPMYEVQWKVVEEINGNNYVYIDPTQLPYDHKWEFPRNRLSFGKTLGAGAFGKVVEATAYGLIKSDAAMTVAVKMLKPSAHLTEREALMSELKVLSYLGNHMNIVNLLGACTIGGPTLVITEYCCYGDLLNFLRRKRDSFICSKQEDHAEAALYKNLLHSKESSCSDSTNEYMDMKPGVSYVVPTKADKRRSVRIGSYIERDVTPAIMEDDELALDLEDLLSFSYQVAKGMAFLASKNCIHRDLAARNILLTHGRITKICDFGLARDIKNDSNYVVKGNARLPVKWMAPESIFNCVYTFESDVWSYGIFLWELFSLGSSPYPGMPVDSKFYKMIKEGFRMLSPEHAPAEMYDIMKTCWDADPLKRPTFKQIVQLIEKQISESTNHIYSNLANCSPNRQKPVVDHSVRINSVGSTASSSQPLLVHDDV

B1: CDX-0159 (antibody, INN chains, looked up, V domains shown)
VH: QVQLVQSGAEVKKPGASVKLSCKASGYTFTDYYINWVRQAPGKGLEWIARIYPGSGNTYYNEKFKGRATLTADKSTSTAYMQLSSLRSEDTAVYFCARGVYYFDYWGQGTTVTVSS
VL: DIVMTQSPSSLSASVGDRVTITCKASQNVRTNVAWYQQKPGKAPKALIYSASYRYSGVPDRFTGSGSGTDFTLTISSLQPEDFADYFCQQYNSYPRTFGGGTKVEIK
Binder B1 has an IC50 (read off the curve) [1] of 100 to 200 pM and an IC50, inhibition of SCF-dependent proliferation of M-07e cells [2] of 408 pM.
